# According to patent US20210332115A1 (Sanofi, published 2021):
# Residue numbers refer to the chain shown, from its start.
# B1: VH4/Vκ6-IgG4v1 (antibody)
# heavy: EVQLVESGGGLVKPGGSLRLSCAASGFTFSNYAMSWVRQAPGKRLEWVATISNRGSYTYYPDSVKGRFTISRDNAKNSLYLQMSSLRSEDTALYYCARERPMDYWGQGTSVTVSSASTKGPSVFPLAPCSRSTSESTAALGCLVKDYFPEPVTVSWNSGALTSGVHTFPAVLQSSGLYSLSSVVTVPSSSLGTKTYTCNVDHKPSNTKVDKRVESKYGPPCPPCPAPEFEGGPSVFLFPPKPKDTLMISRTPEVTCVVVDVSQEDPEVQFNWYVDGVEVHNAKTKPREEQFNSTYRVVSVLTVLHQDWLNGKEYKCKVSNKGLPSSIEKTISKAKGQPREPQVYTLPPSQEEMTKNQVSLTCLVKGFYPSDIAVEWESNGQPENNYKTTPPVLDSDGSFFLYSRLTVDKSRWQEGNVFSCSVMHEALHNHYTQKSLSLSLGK
# light: DIVMTQSPSFLSASVGDRVTITCKASQDVGTAVAWYQQKPGKAPKLLIYWASTRHTGVPDRFTGSGSGTDFTLTISSLQSEDFAVYFCHQHSSNPLTFGQGTKLEIKRTVAAPSVFIFPPSDEQLKSGTASVVCLLNNFYPREAKVQWKVDNALQSGNSQESVTEQDSKDSTYSLSSTLTLSKADYEKHKVYACEVTHQGLSSPVTKSFNRGEC
# notes: also called VH4/VK6; V46/VK6-IgG4v1
# B2: VH6/Vκ7-IgG4v1 (antibody)
# heavy: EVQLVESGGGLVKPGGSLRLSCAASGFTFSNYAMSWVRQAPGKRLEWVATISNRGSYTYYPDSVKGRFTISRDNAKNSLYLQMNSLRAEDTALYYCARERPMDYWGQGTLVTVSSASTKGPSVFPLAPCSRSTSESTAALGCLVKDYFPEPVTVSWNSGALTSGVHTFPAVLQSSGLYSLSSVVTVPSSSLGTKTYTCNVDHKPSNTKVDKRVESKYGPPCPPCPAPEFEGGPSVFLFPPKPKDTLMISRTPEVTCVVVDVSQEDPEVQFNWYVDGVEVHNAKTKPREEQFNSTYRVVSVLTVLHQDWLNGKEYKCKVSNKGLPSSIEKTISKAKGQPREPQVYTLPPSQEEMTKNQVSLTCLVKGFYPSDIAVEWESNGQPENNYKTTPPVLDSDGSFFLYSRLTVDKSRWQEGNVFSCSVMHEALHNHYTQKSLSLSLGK
# light: B1 light with V3Q, F10T, T63S, S80A
# notes: also called VH6/VK7; VH6/VK7-IgG4v1
# B3: VH4/Vκ7 (antibody, V domains shown)
# VH: EVQLVESGGGLVKPGGSLRLSCAASGFTFSNYAMSWVRQAPGKRLEWVATISNRGSYTYYPDSVKGRFTISRDNAKNSLYLQMSSLRSEDTALYYCARERPMDYWGQGTSVTVSS
# VL: DIQMTQSPSTLSASVGDRVTITCKASQDVGTAVAWYQQKPGKAPKLLIYWASTRHTGVPDRFSGSGSGTDFTLTISSLQAEDFAVYFCHQHSSNPLTFGQGTKLEIK
# notes: Redesigned variant; cloned into the appropriate expression vector (IgG4v1 and kappa were used in the first round)
# B4: VH6/Vκ6 (antibody, V domains shown)
# VH: B3 VH with S84N, S88A, S110L
# VL: B3 VL with Q3V, T10F, S63T, A80S
# notes: as for B3
# B5: VH7/Vκ7 (antibody, V domains shown)
# VH: B3 VH with A40T, G42E, S84N, S88A, S110L
# VL: B3 VL
# notes: Redesigned variant; cloned into the appropriate expression vector (IgG4v1 and kappa were used in the first round); also called VH7/VκK7
# B6: VH7/Vκ0 (antibody, V domains shown)
# VH: B3 VH with A40T, G42E, S84N, S88A, S110L
# VL: DIVMTQSHKFMSTSVGDRVSITCKASQDVGTAVAWYQQKPGQSPKLLIYWASTRHTGVPDRFTGSGSGTDFTLTITNVQSEDLAVYFCHQHSSNPLTFGAGTKLELK
# notes: Control antibody of the redesign round; cloned into the appropriate expression vector (IgG4v1 and kappa were used in the first round), HEK EBNA supernatant
# B7: VH6/Vκ0 (antibody, V domains shown)
# VH: B3 VH with S84N, S88A, S110L
# VL: B6 VL
# notes: as for B6
# B8: Anti-factor Bb mouse monoclonal antibody (antibody, V domains shown)
# VH: B3 VH with G10A, R19K, A40T, G42E, S78T
# VL: B6 VL
# notes: Mouse monoclonal antibody from a hybridoma; also called murine parental antibody; parent anti-factor Bb antibody
# B9: VH6/Vk7-IgG4v2-CHO (antibody)
# heavy chain: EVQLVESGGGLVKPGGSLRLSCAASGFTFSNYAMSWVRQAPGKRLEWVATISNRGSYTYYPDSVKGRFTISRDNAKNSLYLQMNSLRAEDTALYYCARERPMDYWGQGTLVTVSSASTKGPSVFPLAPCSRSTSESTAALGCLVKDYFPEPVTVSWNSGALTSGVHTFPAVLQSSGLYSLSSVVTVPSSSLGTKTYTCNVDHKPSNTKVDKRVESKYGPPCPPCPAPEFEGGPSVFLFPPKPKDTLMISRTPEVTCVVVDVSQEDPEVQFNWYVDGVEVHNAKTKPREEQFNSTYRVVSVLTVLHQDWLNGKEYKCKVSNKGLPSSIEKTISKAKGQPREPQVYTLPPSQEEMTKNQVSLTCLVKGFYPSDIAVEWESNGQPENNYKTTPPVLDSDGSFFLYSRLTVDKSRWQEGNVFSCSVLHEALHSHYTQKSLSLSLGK
# light chain: B1 light with V3Q, F10T, T63S, S80A
# Target: T1, Homo sapiens factor Bb protein (human, UniProt P00751 260-764)
# T1 construct: Bought from CompTech (A155); also called complement factor Bb; human factor Bb
# Assay: SPR multi-cycle kinetics, IgG on Protein A chip, factor Bb analyte
# Description: (§1) Antibodies were diluted in running buffer to a final concentration of 0.5 μg/ml. At the start of each cycle, antibodies were loaded onto Fc2, Fc3 and Fc4 of the Protein A chip (GE Healthcare, Little Chalfont, UK). IgGs were captured at a flow rate of 10 μl/min to give an immobilisation level (RL) of ˜63 RU, the theoretical value to obtain an Rmax of ˜50 RU. The surface was then allowed to stabilize. Kinetic data was obtained with factor Bb as analyte and using a flow rate of 30 μl/min to minimize any potential mass transfer effects. Multiple repeats of a blank and a repeat of a single concentration of the analyte were programmed into the kinetic run in order to check the stability of both the surface and analyte over the kinetic cycles. For kinetic analysis, a two-fold dilution range was selected from 12. 5 nM to 0. 391 nM factor Bb. The association phase of factor Bb was monitored for 360 seconds and the dissociation phase was monitored for 600 seconds. Regeneration of the Protein A surface was conducted using two injections of 10 mM glycine-HCL pH 1. 5. The signal from the reference channel Fc1 was subtracted from that of Fc2, Fc3 and Fc4 to correct for differences in non-specific binding to a reference surface, and a global Rmax parameter was used in the 1-to-1 binding model.
# (§2) The sensorgrams and fitted data for the binding of chimeric antibodies and humanized variants to factor Bb are shown in FIGS. 4A-4C. The relative KD was calculated by dividing the KD of the humanized variants by that of the chimeric antibody on the same chip. The kinetic parameters measured for the interaction of factor Bb with chimeric antibodies and humanized variants are shown in Table 10.
# T1 sequence (P00751 260-764 limits assumed): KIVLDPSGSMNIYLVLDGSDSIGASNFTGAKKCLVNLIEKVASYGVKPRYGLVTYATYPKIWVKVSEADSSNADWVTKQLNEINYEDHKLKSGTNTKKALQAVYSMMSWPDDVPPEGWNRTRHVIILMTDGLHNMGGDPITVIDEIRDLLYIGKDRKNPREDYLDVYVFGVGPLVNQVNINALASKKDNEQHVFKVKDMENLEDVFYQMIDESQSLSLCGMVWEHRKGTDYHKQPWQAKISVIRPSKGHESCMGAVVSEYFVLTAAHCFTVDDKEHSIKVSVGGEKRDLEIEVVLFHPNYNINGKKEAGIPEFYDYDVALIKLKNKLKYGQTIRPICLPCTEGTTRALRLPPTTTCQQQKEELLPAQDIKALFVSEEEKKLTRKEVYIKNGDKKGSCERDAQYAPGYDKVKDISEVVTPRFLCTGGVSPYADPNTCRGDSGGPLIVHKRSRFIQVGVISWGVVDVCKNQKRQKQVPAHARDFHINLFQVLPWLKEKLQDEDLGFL
Kd [nM],koff [s⁻¹],kon [M⁻¹ s⁻¹],Binder
2.14,0.000805,376000,B1
5.7,0.00124,218000,B2
2.61,0.000841,322000,B3
5.17,0.0013,251000,B4
9.51,0.00211,222000,B5

# Target: T1, Homo sapiens factor Bb protein
# Assay: BLI Octet, biotinylated antibody on SA biosensors
# Description: (§3) Briefly, biotinylated antibodies were loaded onto SA Biosensors equilibrated in PBS, 0.1% BSA, 0.02% Tween-20 (assay buffer). After a 60 second baseline in assay buffer, antibodies were loaded onto the probes for 180 seconds, followed by another 60 second baseline. Association to human (Comptech) or cynomolgus monkey factor Bb (purified in-house) was measured for 300 seconds, followed by a 300 second dissociation. Kinetic parameters were calculated by the Octet Analysis software using a 1:1 binding model.
# To determine whether the modification of the Fc portion of the antibodies affected affinity and species cross-reactivity, VH4/VK6-IgG4v2 and VH6/VK7-IgG4v2 were tested alongside their parental antibodies, VH4/VK6 and VH6/VK7, respectively, for their ability to bind human and cynomolgus monkey factor Bb by BLI. VH4/VK6-IgG4v2 and VH6/VK7-IgG4v2 contain mutations in the Fc region that increase the affinity for an Fc receptor.
row,Kd [nM],Binder
1,1.6,B1
2,1.7,B2

# Target: T1, Homo sapiens factor Bb protein
# Assay: cell-based or functional assay
row,AP Assay IC50 [nM],Binder
1,22,B1
2,21,B2
3,23,B3
4,19,B4
5,25,B5

# Target: T1, Homo sapiens factor Bb protein
# Assay: SPR single cycle kinetics; ratio against VH0/Vκ0
# Description: All single cycle kinetic experiments were run at 25° C. with HBS-P+running buffer (pH 7. 4) (GE Healthcare, Little Chalfont, UK).
# (§4) Antibodies were diluted in running buffer to a final concentration of 1 μg/ml, based on concentrations assessed by ELISA titer. At the start of each cycle, antibodies were loaded onto Fc2, Fc3 and Fc4 of the Protein A chip (GE Healthcare, Little Chalfont, UK). IgGs were captured at a flow rate of 10 μl/min to give an immobilization level (RL) of ˜63 RU, the theoretical value to obtain an Rmax of ˜50 RU. The surface was then allowed to stabilize. Single cycle kinetic data was obtained with factor Bb (CompTech, Tyler, USA) as the analyte at a flow rate of 30 μl/min to minimize any potential mass transport limitations. Multiple repeats with the reference chimeric antibody were performed to check the stability of the surface and analyte over the kinetic cycles. The signal from the reference channel Fc1 (no antibody) was subtracted from that of Fc2, Fc3 and Fc4 to correct for differences in non-specific binding to a reference surface. A four point, two-fold dilution range from 0. 78 nM to 6. 25 nM factor Bb without regeneration between each concentration was used. The association phase for the four injections of increasing concentrations of factor Bb was monitored for 200 seconds each time and a single dissociation phase was measured for 200 seconds following the last injection of factor Bb. Regeneration of the Protein A surface was conducted using two injections of 10 mM glycine-HCL pH 1. 5.
# Single cycle kinetics using cell culture supernatants were performed as described above. […] The relative KD was calculated by dividing the KD of the VH0/Vκ0 reference antibody by that of the humanized variant assayed in the same experiment.
row,Relative KD,Binder
1,1.25,B1
2,1.98,B2
3,1.32,B3
4,4.25,B6
5,1.86,B7
6,2.17,B4
7,1.37,B5

# Target: T1, Homo sapiens factor Bb protein
# Assay: SPR multi-cycle kinetics; ratio against VH0/Vκ0 on the same chip
# Description: as §1, §2
row,Relative KD,Binder
1,1.08,B1
2,2.98,B2
3,1.31,B3
4,2.71,B4
5,5.01,B5

# Target: T1, Homo sapiens factor Bb protein
# Assay: competition ELISA on coated factor Bb; competitor murine parental antibody
# Description: Factor Bb was diluted in 1× PBS to 1.0 μg/ml and 100 μl/well was coated overnight at 4° C. on a 96-well ELISA plate. The following day the plates were blocked for two hours at room temperature with 1% casein/PBS before washing 2× with PBS pH 7.4. In a 96-well dilution plate a fixed concentration of murine parental antibody (0.5 μg/ml, final concentration) was added in equal volume to a four-fold titration series of test antibody (starting from 45 μg/ml to 0.01 μg/ml, final concentration) diluted in blocking buffer. After washing the plate 3× with PBS-T, 100 μl of chimeric/test antibody mix was added to the ELISA plate. After incubating at room temperature for one hour, the plate was washed 3× with PBS-T and 100 μl of anti-mouse IgG Fc-Specific HRP (Sigma, Dorset, UK) diluted 1:1000 in PBS-T was applied for one hour at room temperature to detect bound mouse antibody. For color development, the plate was washed 3× with PBS-T following which 100 μl of TMB substrate was added and incubated for approximately five minutes at room temperature. The reaction was stopped with 50 μl of 3.0 M hydrochloric acid and absorbance was read immediately using a DYNEX ® plate reader at 450 nm.
# IC50 values were calculated for each variant and relative IC50 values were calculated by dividing the IC50 of the humanized variant by that of the chimeric antibody assayed on the same plate (Table 11).
row,IC50 [nM],Binder
1,1.02,B1
2,0.82,B2
3,0.75,B3
4,0.93,B4
5,1.43,B5

# Target: T1, Homo sapiens factor Bb protein
# Assay: BLI Octet, biotinylated antibody on SA biosensors
# Remark: another data set of the same source
# Description: as §3
row,Kd [nM],Binder
1,1.6,B1
2,1.9,B2
3,1.9,B3
4,1.9,B8
5,1.9,B4
6,2.9,B5

# Target: T1, Homo sapiens factor Bb protein
# Assay: SPR single cycle kinetics, IgG on Protein A chip, factor Bb analyte
# Description: In order to assess the binding of all humanized variants, single cycle kinetic analysis was performed on supernatants from transfected cell cultures. […] All single cycle kinetic experiments were run at 25° C. with HBS-P+running buffer (pH 7. 4) (GE Healthcare, Little Chalfont, UK).
# as §4
# Single cycle kinetics using cell culture supernatants were performed as described above.
Kd [nM],koff [s⁻¹],kon [M⁻¹ s⁻¹],Binder
2.22,0.000859,387000,B1
3.51,0.00221,630000,B2
2.34,0.000903,386000,B3
7.53,0.00207,274000,B6
3.29,0.00197,598000,B7
3.84,0.00158,412000,B4
2.42,0.0117,4.83e+06,B5

# Target: T1, Homo sapiens factor Bb protein
# Assay: BLI, multi-cycle kinetics, antibody loaded on anti-hIgG Fc sensors, human factor Bb in solution (100 nM to 0.14 nM), 1:1 fit
# Description: Multicycle kinetic analysis was performed on CHO and HEK-produced VH6/VK7-IgG4v2 antibodies using biolayer interferometry. Antibodies were diluted to 10 μg/mL in PBS+ 0.02%. Tween20, 0.1% BSA, 0.05% sodium azide and loaded onto anti-hIgG Fc sensors (pre-equilibrated in the same buffer) for 90 seconds followed by a 60-minute baseline in buffer. Binding of a concentration series of human factor Bb (Complement Technologies, #A155), ranging from 100 nM to 0.14 nM in 2-fold dilutions, was measured in a 300 second association in the same buffer, followed by a 300 second dissociation step.
row,Kd [nM],Binder
1,2.7,B9
